Reference: patent publication US8598081B2, “Specific delivery of agrochemicals” (priority 2010, dated 2013)

Legend:
grass leaf discs = test: Leaf disc binding assay with VHH-coupled microcapsules, grass; parameters: species or system Lollium perenne; conditions: Uvitex microcapsules
Procedure: A leaf disc binding assay was used to evaluate the interaction of VHH-coupled microcapsules with potato, grass and azalea leaves. ø 8 mm leaf discs were sampled from the leaves of potato pot plants (variety Desiree), from the leaves of greenhouse-grown Lollium perenne and from the leaves of azalea pot plants. Leaf discs were washed three times with PBS. Microcapsules containing lambda cyhalothrin or Uvitex were diluted to appropriate densities in 1% skimmed milk in PBS with 0.05%-TWEEN®-20. Microcapsules were added to the leaf discs and settling of microcapsules and binding of targeting agents allowed for 1 hour. Unbound microcapsules were removed by washing three to five times with PBS with 0.05%-TWEEN®-20.
Leaf discs with Uvitex microcapsules were analyzed for bound microcapsules on a macrozoom microscope system (Nikon). Microcapsules were counted using Volocity image analysis software (Perkin Elmer). A DAPI filter was used to visualize Uvitex microcapsules. Controls for Uvitex microcapsules included blank microcapsules to which no VHH were coupled and microcapsules to which unrelated VHH were coupled.

potato lectin = biological target: T1, potato lectin (Solanum tuberosum, UniProt Q9S8M0); test: ELISA-like assay, microcapsules with monovalent or bivalent VHH, potato lectin; format: binding; parameters: Surface area of bound microcapsules: unit not given here; conditions: for Surface area of bound microcapsules: Uvitex microcapsules
T1 construct: purchased Sigma
T1 sequence (Q9S8M0 whole entry, looked up): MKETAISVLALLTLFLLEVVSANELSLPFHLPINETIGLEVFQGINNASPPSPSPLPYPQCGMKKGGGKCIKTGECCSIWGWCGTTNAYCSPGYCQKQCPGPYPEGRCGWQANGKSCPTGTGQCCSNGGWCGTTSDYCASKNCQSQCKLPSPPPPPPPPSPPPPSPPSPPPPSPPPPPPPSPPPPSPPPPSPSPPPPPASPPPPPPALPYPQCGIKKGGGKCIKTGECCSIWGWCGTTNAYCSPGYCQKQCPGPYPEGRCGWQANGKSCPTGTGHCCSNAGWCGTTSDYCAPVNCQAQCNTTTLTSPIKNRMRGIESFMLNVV
Description: (§1) Bivalent VHH constructs were produced in bacteria by cloning two VHH sequences in tandem into the pASF22 vector, creating a fusion of two VHH with a 9 glycine-serine linker (GGGGSGGGS (SEQ ID NO:50)) in between the two VHH. pASF22 is an in-house produced pMES derivative. The tags that were used were C-terminal c-Myc (EQKLISEEDLN (SEQ ID NO:51)) and hexahistidine (HHHHHH (SEQ ID NO:52)). A triple alanine linker (AAA) was placed in between the C-terminal end of the VHH and the c-Myc tag and a glycine-alanine-alanine (GAA) linker was used in between the C-terminal end of the c-Myc tag and the hexahistidine tag. The complete sequence C-terminal of the bivalent VHH that was used: AAA-EQKLISEEDLN-GAA-HHHHHH (SEQ ID NO:53). Fresh overnight cultures were produced by starting from colony streaks and inoculation of 2×TY media supplemented with 2% glucose and 100 μg/ml ampicillin. The overnight cultures were used to inoculate fresh cultures 1:100 in 2×TY media with 0.1% glucose and 100 μg/ml ampicillin. After growing at 37° C. in a shaking incubator for 3 hours, IPTG was added to a 1 mM final concentration and recombinant bivalent VHH were produced during an additional incubation for 4 hours. Cells were spun down and resuspended in 1/50th of the original culture volume of PBS and incubated with head-over-head rotation at 4° C. for 30 minutes. Spheroplasts were spun down by centrifugation at 3,000 g and 4° C. for 20 minutes. Supernatants were transferred to fresh tubes and centrifuged again at 3,000 g and 4° C. for 20 minutes. The supernatant was collected and sodium chloride concentration was adjusted to 500 mM and imidazole concentration to 20 mM. Hexahistidine-tagged bivalent VHH were purified from the extracts using HisTrap FF Crude 5 ml IMAC columns (GE Lifesciences) and HiLoad 16/60 Superdex 75 prep grade gel filtration column (GE Lifesciences) on an AKTAxpress system (GE Lifesciences) following standard procedures.
(§2) Next, it was investigated if binding of microcapsules to surfaces could be improved by using targeting agents comprising multivalent VHH. A series of parallel couplings was performed with equal amounts of monovalent VHH, bivalent VHH, and unrelated VHH. Success of coupling of VHH and multivalent VHH were analyzed as described in Example 4. An ELISA-like assay was performed using high bind half area microplates (Greiner Bio-One) coated with 5 μg/well potato lectin. Control wells included blank wells or wells coated with unrelated antigens. Plates were washed three times with PBS with 0.05%-TWEEN®-20 and blocked with 5% skimmed milk in PBS for 1 to 2 hours. VHH-coupled Uvitex-containing microcapsules were diluted to appropriate densities in 1% skimmed milk in PBS with 0.05%-TWEEN®-20. Five-fold serial dilution series were prepared and allowed to bind to the surface to compare binding of microcapsules coupled with monovalent or bivalent VHH. Microcapsules were added to the antigen-coated or control wells and allowed to bind for 1 hour. Unbound microcapsules were removed by washing five times with PBS with 0.05%-TWEEN®-20. The bottoms of ELISA plate wells were analyzed for bound microcapsules on a macrozoom microscope system (Nikon). Microcapsules were counted using Volocity image analysis software (Perkin Elmer). A DAPI filter was used to visualize Uvitex microcapsules. […] The surface area of microcapsules with coupled bivalent VHH was 15-fold above the surface area of blank microcapsules applied at this microcapsule density while the surface area of microcapsules with monovalent VHH was only six-fold above the surface area of blank microcapsules applied at this microcapsule density. This difference could be explained by an increase in binding strength due to additional avidity of the bivalent VHH compared to monovalent VHH, it could also be that the use of bivalent VHH increases flexibility and spacer length of the coupled targeting agents on microcapsules, or a combination of both.

[1] = ELISA-like assay, microcapsules with monovalent or bivalent VHH, unrelated antigen; format: binding; parameters: unit not given beside the values; conditions: Uvitex microcapsules
Description: as §1, §2

B1: Microcapsules containing uvitex OB VHH 3E6: polyurea microcapsules containing the fluorescent tracer Uvitex OB, coupled with (monovalent) VHH 3E6 (conjugate)
VHH: QVQLQESGGGLVQPGGTLSLSCAASGFNVRWYGMGWFRQAPGKEREGVACISALQETTAYADSVKGRFTLSRDNPKNTLSLQMNNLQPEDTGVYYCATTDCDDSSRMTYTSYLGQGTQVTVSS
modifications: left off: small tags and cut ends
notes: polyurea microcapsules containing the fluorescent tracer Uvitex OB, coupled with (monovalent) VHH 3E6
Q: What does the source list for B1?
A: more microcapsules bound to leaf surfaces compared to blank microcapsules (grass leaf discs): three-fold; more microcapsules bound to leaf surfaces compared to microcapsules coupled with unrelated VHH (grass leaf discs): two-fold; surface area of bound microcapsules above the surface area of blank microcapsules (potato lectin; application of 25-fold less microcapsules, potato lectin): six-fold; Surface area of bound microcapsules (potato lectin; no coating (first series, with potato lectin rows), surface coverage 100%): 74.536; Surface area of bound microcapsules (potato lectin; potato lectin, surface coverage 4%): 59.377; Surface area of bound microcapsules (potato lectin; potato lectin, surface coverage 20%): 307.478; Surface area of bound microcapsules (potato lectin; potato lectin, surface coverage 100%): 415.773; Surface area of bound microcapsules ([1]; no coating (second series, with unrelated antigen rows), surface coverage 100%): 72.036; Surface area of bound microcapsules ([1]; unrelated antigen, surface coverage 4%): 5.011; Surface area of bound microcapsules ([1]; unrelated antigen, surface coverage 20%): 27.742; Surface area of bound microcapsules ([1]; unrelated antigen, surface coverage 100%): 69.503
